Patent US11447566B2, “Anti-tissue factor antibodies, antibody-drug conjugates, and related methods” (Iconic Therapeutics, Inc., priority 2018, dated 2022)

Key:
[1] = target: T1, human, rat and chimeric human-rat TF constructs expressed on HEK293 cells (Homo sapiens, UniProt P13726, A112W/A121G/E116T/E127T/E131K/E137D/G113R/G119T/G122E/L125P/L136R/N139K/P130R/S117H/S120H/S129A/T118G/T133L/V115S/Y110V/Y126F); test: Live cell staining assay on chimeric TF constructs (epitope binning); type: cell-based; settings: construct h78-107_r (21), human segment replaced by rat segment
T1 construct: expressed in transfected cells; host or cells: HEK293
T1 sequence (P13726 33-295 with the stated changes): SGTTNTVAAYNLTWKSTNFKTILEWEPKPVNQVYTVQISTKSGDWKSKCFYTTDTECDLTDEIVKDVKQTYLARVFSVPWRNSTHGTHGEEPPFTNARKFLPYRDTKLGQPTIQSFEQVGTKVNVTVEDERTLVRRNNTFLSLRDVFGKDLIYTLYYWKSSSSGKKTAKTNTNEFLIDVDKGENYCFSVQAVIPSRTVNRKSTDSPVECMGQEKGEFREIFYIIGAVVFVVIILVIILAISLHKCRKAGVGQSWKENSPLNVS
Procedure: (§1) To establish binding of the anti-human TF antibodies to the various TF constructs, HEK293 cells were transfected with a DNA plasmid that co-expresses the TF construct and a green fluorescent protein marker. […] Two days after transfection, cells were collected from the tissue culture plate, stained with 15 μg/ml of the indicated anti-TF antibody, washed, stained with anti-human IgG-Fc Alexa Fluor 647 polyclonal antibody, washed, and stained with the viability dye 4′,6-Diamidino-2-Phenylindole, Dihydrochloride. Upon acquisition of 80,000 live events on a flow cytometer, live cells marked with the fluorescent marker were analyzed for the degree of staining by the anti-TF antibody. […] As used herein, the term “live cell staining assay” refers to the antibody binding assay used in this example.
(§2) When “Percentage antibody binding to TF construct relative to hTF” in Tables 51 and 52 was less than 50%, the antibody was considered a non-binder (0) in Tables 53 and 54.
(§3) Each antibody was assigned to an epitope bin in Table 55 based on the combination of unbound constructs from Table 53.

[2] = target: T2, human, rat and chimeric human-rat TF constructs expressed on HEK293 cells (Homo sapiens, UniProt P13726, N170G/R168K); test: as above; type: cell-based; settings: construct h133-139_r (2), human segment replaced by rat segment
T2 construct: expressed in transfected cells; host or cells: HEK293
T2 sequence (P13726 33-295 R168K/N170G): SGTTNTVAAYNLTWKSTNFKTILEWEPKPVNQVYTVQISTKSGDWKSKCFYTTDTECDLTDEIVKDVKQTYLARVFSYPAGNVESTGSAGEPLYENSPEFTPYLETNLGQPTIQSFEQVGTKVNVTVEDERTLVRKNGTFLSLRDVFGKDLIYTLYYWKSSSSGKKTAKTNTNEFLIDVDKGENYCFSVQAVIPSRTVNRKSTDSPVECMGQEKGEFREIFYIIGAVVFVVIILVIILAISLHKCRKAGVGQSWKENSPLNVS
Procedure: as §1, §2, §3

[3] = target: T3, human, rat and chimeric human-rat TF constructs expressed on HEK293 cells (Homo sapiens, UniProt P13726, D76N/F108L/F82T/G75R/K100N/K73R/L104E/Q101W/S79Y/T72D/Y83G); test: as above; type: cell-based; settings: construct h39-77_r (11), human segment replaced by rat segment
T3 construct: expressed in transfected cells; host or cells: HEK293
T3 sequence (P13726 33-295 T72D/K73R/G75R/D76N/S79Y/F82T/Y83G/K100N/Q101W/L104E/F108L): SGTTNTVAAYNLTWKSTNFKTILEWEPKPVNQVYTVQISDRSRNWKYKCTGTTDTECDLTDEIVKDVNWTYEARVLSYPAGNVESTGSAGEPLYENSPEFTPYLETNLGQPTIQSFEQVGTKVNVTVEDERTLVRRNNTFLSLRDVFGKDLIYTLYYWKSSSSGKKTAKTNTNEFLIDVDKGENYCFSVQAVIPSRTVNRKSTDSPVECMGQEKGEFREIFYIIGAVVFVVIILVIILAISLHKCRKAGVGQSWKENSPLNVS
Procedure: as §1, §2, §3

[4] = target: T4, human, rat and chimeric human-rat TF constructs expressed on HEK293 cells (Homo sapiens, UniProt P13726, K181N); test: as above; type: cell-based
T4 construct: expressed in transfected cells; host or cells: HEK293
T4 sequence (P13726 33-295 K181N): as the sequence (P13726 33-295 R168K/N170G) above, with K136R, G138N, K149N counted along it
Procedure: as §1, §2, §3

[5] = target: T5, human TF on MDA-MB-231 cells (43D7-Alexa488 binding) (Homo sapiens, UniProt P13726); test: Antibody competition assay with 43D7; settings: pre-incubation with unlabeled competitor antibody
T5 construct: TF-positive MDA-MB-231 cells (ATCC, Manassas, Va., USA); host or cells: MDA-MB-231
T5 sequence (P13726 33-295): as the sequence (P13726 33-295 R168K/N170G) above, with K136R, G138N counted along it
Procedure: Alexa Fluor antibodies were generated using Alexa Fluor 488 5-sulfo-[…] esters (ThermoFisher Scientific) following manufacturer's protocol. Excess Alexa Fluor dye was removed from the antibody dye conjugate preparations by gel filtration (ThermoFisher Scientific).
After another 1 hr incubation on ice, cells were washed, stained with a viability dye, and analyzed by flow cytometry. The Alexa488 fluorescence data from viable cells was summarized using median fluorescence intensity.

[6] = system: human thrombin generation (relipidated TF, normal pooled plasma); test: Thrombin generation assay (TGA); type: biochemical; settings: 100 nM antibody, Example 18
Procedure: (§4) The TGA assay was performed using the calibrated-automated-thrombogram (CAT) instrument manufactured and distributed by STAGO. The test method design was equivalent to a standard CAT assay measurement, except that the plasma source was NPP in citrate/CTI. […] Relipidated TF was added to a 96-well assay plate, followed by addition of the antibody/NPP mixture. After a 10-min incubation or directly after combining the relipidated TF with antibody/NPP, thrombin generation was initiated by the addition of calcium and the thrombin substrate. The STAGO software was used to report the following parameters: Peak IIa (highest thrombin concentration generated [nM]); Lag Time (time to IIa generation [min]); ETP (endogenous thrombin potential, area under the curve [nM×min]); and ttPeak (time to Peak IIa [min]).
as §4, with “was normal pooled plasma (NPP)” for “was NPP”, “in citrate supplemented with corn trypsin inhibitor (citrate/CTI).” for “in citrate/CTI.”
TGA assay was performed using the calibrated-automated-thrombogram (CAT) instrument manufactured and distributed by STAGO (Diagnostica Stago SAS, Asnieres sur Seine, France). […] The anti-TF antibodies were titrated at 0, 10, 50 and 100 nM and mixed with NPP in citrate/CTI. Relipidated TF was added to a 96-well assay plate, followed by addition of the antibody/NPP mixture. After a 10-min incubation or directly after combining the relipidated TF with antibody/NPP, thrombin generation was initiated by the addition of calcium and the thrombin substrate. The STAGO software was used to report the following parameters: Peak IIa (highest thrombin concentration generated on the thrombin generation curve [nM]); Lag Time (time from assay start to the moment 10 nM of thrombin is formed [min]); ETP (endogenous thrombin potential, area under the curve [nM×min]); and ttPeak (time from assay start to Peak IIa [min]). […] As used herein, the term “thrombin generation assay” (TGA) refers to the TGA used in this example.

[7] = target: T6, human TF on MDA-MB-231 cells (FVII-Fc binding) (Homo sapiens, UniProt P13726); test: FVIIa competition assay; settings: highest concentration of antibody; FIG. 14B
T6 construct: TF-positive MDA-MB-231 cells (ATCC, Manassas, Va., USA); host or cells: MDA-MB-231
T6 sequence (P13726 33-295): as the sequence (P13726 33-295 R168K/N170G) above, with K136R, G138N counted along it
Procedure: To evaluate competition between FVIIa and the human antibodies against TF, TF-positive MDA-MB-231 cells (ATCC, Manassas, Va., USA) were first incubated for 1 hr on ice with a titration of the human antibodies against TF. Subsequently, a final concentration of 20 nM of FVII-Fc conjugated to Alexa488 was added to the antibody cell mixture. After another 1 hr incubation on ice, cells were washed, stained with a viability dye, and analyzed by flow cytometry. The Alexa488 fluorescence data from viable cells was summarized using median fluorescence intensity.
Subsequently, FVII-Fc conjugated to Alexa488 was added to the antibody-cell mixture at a final concentration of 20 nM. After another 1 hr incubation on ice, cells were washed, stained with a viability dye, and analyzed by flow cytometry. The Alexa488 fluorescence data from viable cells was summarized using median fluorescence intensity (MFI).

[8] = target: T7, TF:FVIIa on MDA-MB-231 cells (Homo sapiens, UniProt P13726); test: FXa conversion assay; type: cell-based; settings: concentrations of 25, 50, and 100 nM; FIG. 14A
T7 construct: MDA-MB-231 cells (ATCC, Manassas, Va., USA) were plated; host or cells: MDA-MB-231
T7 sequence (P13726 33-295): as the sequence (P13726 33-295 R168K/N170G) above, with K136R, G138N counted along it
Procedure: To evaluate the ability of TF:FVIIa to convert FX into FXa in the presence of human antibodies against TF, 5×10^4 MDA-MB-231 cells (ATCC, Manassas, Va., USA) were plated into tissue culture-treated black 96-well plates (Greiner Bio-One, Monroe, N.C., USA). […] Upon reconstitution of the binary TF:FVIIa complex with a final concentration of 20 nM of FVIIa, cells were incubated for 5 min at 37° C.
Briefly, 5×10^4 MDA-MB-231 cells (ATCC, Manassas, Va., USA) were plated into tissue culture-treated black 96-well plates (Greiner Bio-One, Monroe, N.C., USA) and cultured overnight. […] Upon reconstitution of the binary TF:FVIIa complex with a final concentration of 20 nM of FVIIa, cells were incubated for 5 min at 37° C.

TF-011 [reference compound] was tested, and the “Antibody binding to TF construct” value [1] was 0 (less than 50%, the antibody was considered a non-binder (0)), the “Antibody binding to TF construct” value [2] was 1 (between 50% and 150%, the antibody was considered a binder (1)) and the “Antibody binding to TF construct” value [3] was 0 (less than 50%, the antibody was considered a non-binder (0)). For the same substance, the “Antibody binding to TF construct” value ([4]; construct h146-151_r (1), human segment replaced by rat segment) was 1 (between 50% and 150%, the antibody was considered a binder (1)), the “Antibody binding to TF construct” value ([4]; construct hTF_K149N) was 1 (between 50% and 150%, the antibody was considered a binder (1)) and the “% 43D7 binding” value [5] was “did not reduce”. The “reduction of the peak IIa concentration” value ([6]; 10 min antibody pre-incubation) was 91%, the “reduction of the peak IIa concentration” value ([6]; without antibody pre-incubation) was 91% and the “competition with FVII” value [7] was “effectively competed”. For the same substance, the “inhibition of FX conversion” value [8] was 57-59%.
